Results on one molecule are retold here after publication doi:10.1101/2023.03.07.531120 (bioRxiv, 2023).

Where no end group is shown, it is not given here. The star is where a group is joined. FITC = O=C1OC2(c3ccc(O)cc3Oc3cc(O)ccc32)c2ccc(NC(=S)*)cc21; Oleoyl = CCCCCCCC/C=C\CCCCCCCC(=O)*

This assay has as its target T1, AP2 μ2 subunit (in the mouse AP2 core) (mouse, UniProt P84091 1-435).
T1 sequence: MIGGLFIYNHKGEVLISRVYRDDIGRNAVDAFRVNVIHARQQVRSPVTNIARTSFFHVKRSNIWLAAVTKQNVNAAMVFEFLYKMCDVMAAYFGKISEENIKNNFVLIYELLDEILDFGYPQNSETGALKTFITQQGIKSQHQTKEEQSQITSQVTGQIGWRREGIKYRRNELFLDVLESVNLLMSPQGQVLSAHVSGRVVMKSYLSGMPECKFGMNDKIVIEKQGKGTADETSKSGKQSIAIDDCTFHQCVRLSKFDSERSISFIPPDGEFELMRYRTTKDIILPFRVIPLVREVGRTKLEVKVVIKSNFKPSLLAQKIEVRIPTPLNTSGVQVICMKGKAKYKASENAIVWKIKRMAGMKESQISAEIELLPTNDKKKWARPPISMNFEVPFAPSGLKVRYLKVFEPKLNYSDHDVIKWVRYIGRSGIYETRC
The assay is described as follows: cryo-EM structure.

Take Oleoyl-SK(FITC)KVTRRPKASDYQRL [Lipidated YxxΦ-cargo peptide of Tgn38 (Oleic acid-S{Lys(FITC)}KVTRRPKASDYQRL)]: the binding result is recorded as “binds”.
